From patent US20200231684A1 (published 2020)

T1: mouse IL-36R (mouse, UniProt Q9ERS7 22-338)
T1 sequence (looked up): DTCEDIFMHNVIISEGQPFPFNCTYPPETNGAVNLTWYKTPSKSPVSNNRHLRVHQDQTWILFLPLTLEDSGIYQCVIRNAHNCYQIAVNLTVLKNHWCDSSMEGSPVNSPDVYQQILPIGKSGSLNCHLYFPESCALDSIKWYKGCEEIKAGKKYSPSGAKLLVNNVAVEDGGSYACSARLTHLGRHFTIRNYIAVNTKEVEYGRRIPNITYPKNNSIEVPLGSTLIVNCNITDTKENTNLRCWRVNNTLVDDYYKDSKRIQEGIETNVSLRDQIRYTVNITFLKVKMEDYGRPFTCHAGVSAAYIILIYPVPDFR

T2: human IL-1R1 (human, UniProt P14778 18-336, limits assumed)
T2 construct: also called IL-1RI
T2 sequence (looked up): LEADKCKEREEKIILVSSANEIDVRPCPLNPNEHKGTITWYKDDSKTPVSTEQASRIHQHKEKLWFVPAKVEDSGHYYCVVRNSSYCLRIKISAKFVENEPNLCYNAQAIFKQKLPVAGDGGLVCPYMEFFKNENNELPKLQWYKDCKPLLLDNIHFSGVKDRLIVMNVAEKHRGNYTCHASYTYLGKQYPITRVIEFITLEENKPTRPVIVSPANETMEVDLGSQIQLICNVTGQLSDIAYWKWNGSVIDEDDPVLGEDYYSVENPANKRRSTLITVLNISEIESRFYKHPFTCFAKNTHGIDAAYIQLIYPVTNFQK

T3: human IL-36R on cells (human, UniProt Q9HB29 20-575)
T3 sequence (looked up): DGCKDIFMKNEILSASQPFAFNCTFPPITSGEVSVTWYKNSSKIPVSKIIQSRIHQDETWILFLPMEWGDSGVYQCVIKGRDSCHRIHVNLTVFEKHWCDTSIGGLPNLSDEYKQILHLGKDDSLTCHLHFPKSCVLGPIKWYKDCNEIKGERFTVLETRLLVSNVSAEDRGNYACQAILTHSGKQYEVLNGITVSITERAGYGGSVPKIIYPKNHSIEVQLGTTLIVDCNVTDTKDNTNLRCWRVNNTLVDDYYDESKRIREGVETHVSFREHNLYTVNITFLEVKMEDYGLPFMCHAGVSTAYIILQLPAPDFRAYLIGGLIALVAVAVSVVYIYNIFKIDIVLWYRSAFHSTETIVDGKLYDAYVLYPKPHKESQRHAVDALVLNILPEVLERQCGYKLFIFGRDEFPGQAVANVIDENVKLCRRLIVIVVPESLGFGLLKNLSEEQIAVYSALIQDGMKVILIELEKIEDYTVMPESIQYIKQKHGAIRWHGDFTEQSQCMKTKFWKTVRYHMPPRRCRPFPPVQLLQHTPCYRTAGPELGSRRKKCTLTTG


Assays:
mouse IL-36R = target: T1, mouse IL-36R; assay: BLI (Fortebio Octet), antibody injected over antigen surface
Procedure: (§1) B) Molecular selectivity over mouse IL-36R and human IL-1R1 The mouse and chimeric anti-IL-36R antibodies were also injected over either a mouse IL-36R or a human IL-1R1 surface at a concentration of 100 nM. The binding signal to mouse IL-36R and to human IL-1R1 for these antibodies measured using the Fortebio Octet (Fortebio, Menlo Park, Calif.) is zero, which indicates these antibodies selectively bind to human IL-36R.

human IL-1R1 = target: T2, human IL-1R1; assay: as above
Procedure: as §1

human IL-36R on cells [1] = target: T3, human IL-36R on cells; assay: cell-based or functional assay
human IL-36R on cells [2] = target: T3, human IL-36R on cells; assay: cell-based or functional assay; remark: listed apart in the source

binding result (mouse IL-36R)	binding result (human IL-1R1)	IC90, IL-8 release, NCI/ADR-RES cells, trun-IL-36a (human IL-36R on cells [1])	IC90, IL-8 release, NCI/ADR-RES cells, trun-IL-36b (human IL-36R on cells [1])	IC90, IL-8 release, NCI/ADR-RES cells, trun-IL-36g (human IL-36R on cells [1])	IC90, pNFκB, NCI/ADR-RES cells, trun-IL-36a (human IL-36R on cells [1])	IC90, pNFκB, NCI/ADR-RES cells, trun-IL-36b (human IL-36R on cells [1])	IC90, pNFκB, NCI/ADR-RES cells, trun-IL-36g (human IL-36R on cells [1])	IC90, IL-8 release, human primary keratinocytes (NHK), trun-IL-36a (human IL-36R on cells [2])	IC90, IL-8 release, human primary keratinocytes (NHK), trun-IL-36b (human IL-36R on cells [2])	IC90, IL-8 release, human primary keratinocytes (NHK), trun-IL-36g (human IL-36R on cells [2])	IC90, pNFκB, human primary keratinocytes (NHK), trun-IL-36b (human IL-36R on cells [2])	Binder
no binding (tested: 100 nM)	no binding (tested: 100 nM)	–	–	–	–	–	–	–	–	–	–	chimeric antibody of 78C8 (antibody, V domains shown, No own label printed; also called chimeric 78C8) VH: QVQLKESGPVLVAPSQSLSITCTVSGFSLTKFGVHWIRQTPGKGLEWLGVIWAGGPTNYNSALMSRLTISKDISQSQVFLRIDSLQTDDTAMYYCAKQIYYSTLVDYWGQGTSVTVSS VL: DVLLTQTPLSLPVSLGDQASISCRSSQNIVHSNGNTYLQWYLQKPGQSPKLLIYKVSNRFSGVPDRFSGSGSGTDFTLKISRVEAEDLGVYYCFQGSHVPFTFGAGTKLELK
no binding (tested: 100 nM)	no binding (tested: 100 nM)	–	–	–	–	–	–	–	–	–	–	chimeric antibody of 172C8 (antibody, V domains shown, No own label printed; also called chimeric 172C8) VH: EVQLQQSGPELVKPGASVKLSCKASGYTFTDNYMNWVRQSHGKSLEWIGRVNPSNGDTKYNQNFKGKATLTVDKSLSTAYMQLNGLTSEDSAVYYCGRTKNFYSSYSYDDAMDYWGQGTSVTVSS VL: DIQMTQSPASQSASLGESVTFTCLASQTIGTWLAWYQQRPGKSPQLLIYAATSLADGVPSRFSGSGSGTQFSFNIRSLQAEDFASYYCQQVYTTPLTFGGGTKLEIK
no binding (tested: 100 nM)	no binding (tested: 100 nM)	0.7 nM	0.4 nM	0.4 nM	2.1 nM	0.9 nM	1.8 nM	29.7 nM	49.3 nM	3.6 nM	8.3 nM	chimeric antibody C73C5 (antibody, V domains shown, Mouse variable domains of 73C5 on human constant domains (hu IgG1KO/kappa); also called chimeric 73C5) VH: QVQLKESGPGLVAPSQSLSITCTVSGFSLTNYAVHWVRQFPGKGLEWLGVIWSDGSTDFNAPFKSRLSINKDNSKSQVFFKMNSLQIDDTAIYYCARKGGYSGSWFAYWGQGTLVTVSA VL: DIVMTQSQKFLSTSVGVRVSVTCKASQDVGTNVLWYQQKIGQSPKPLIYSASYRHSGVPDRFTGSGSGTDFTLIISNVQSEDLAEYFCQQYSRYPLTFGPGTKLELK
no binding (tested: 100 nM)	no binding (tested: 100 nM)	–	–	–	–	–	–	–	–	–	–	chimeric antibody of 73F6 (antibody, V domains shown, No own label printed; also called chimeric 73F6) VH: QVQLKESGPGLVAPSQSLSITCTVSGFSLTNYAVHWVRQFPGKGLEWLGVIWSDGSTDYNAPFKSRLSINKDNSKSQVFFKMNSLQTDDTAIYYCARKGGYSGSWFAYWGQGTLVTVSA VL: DIVMTQSQKFLSTSVGVRVSVTCKASQDVGTNVLWYQQKIGQSPKALIYSASYRHSGVPDRFTGSGSGTDFTLIITNVQSEDLAEYFCQQYSRYPLTFGPGTKLELK
no binding (tested: 100 nM)	no binding (tested: 100 nM)	–	–	–	–	–	–	23.4 nM	87 nM	1.2 nM	7.1 nM	chimeric antibody C81A1 (antibody, V domains shown, Mouse variable domains of 81A1 on human constant domains (hu IgG1KO/kappa); also called chimeric 81A1) VH: QVQLKESGPGLVAPSQSLFITCTVSGFSLSSYEINWVRQVPGKGLEWLGVIWTGITTNYNSALISRLSISKDNSKSLVFLKMNSLQTDDTAIYYCARGTGTGFYYAMDYWGQGTSVTVSS VL: DIQMTQTTSSLSASLGDRVTISCRASQDIYKYLNWYQQKPDGTLKLLIYYTSGLHSGVPSRFSGSGSGTDFSLTISNLEPEDIATYFCQQDSKFPWTFGGDTKLEIK
no binding (tested: 100 nM)	no binding (tested: 100 nM)	–	–	–	–	–	–	–	–	–	–	chimeric antibody of 67E7 (antibody, V domains shown, No own label printed; also called chimeric 67E7) VH: EVQLQQSGAEFVRPGASVKFSCTASGFNIKDDYIHWVRQRPEQGLEWVGRIDPANGNTKYAPKFQDKATITADTSSNTAYLQLSSLTSEDTAVYYCAKSFPNNYYSYDDAFAYWGQGTLVTVSA VL: DIQMTQSPASQSASLGESVTFTCLASQTIGTWLGWYQQKPGKSPQLLIYRSTTLADGVPSRFSGSGSGTKFSFKISSLQAADFASYYCQQLYSAPYTFGGGTKLEIR
no binding (tested: 100 nM)	no binding (tested: 100 nM)	–	–	–	–	–	–	–	–	–	–	chimeric antibody of 89A12 (antibody, V domains shown, No own label printed; also called chimeric 89A12) VH: EVQLQQSGAELVRPGASVRLSCTASGFNIKDDYIHWVRQRPKQGLEWLGRIDPANGNTKYDPRFQDKATITADTSSNTAYLHLSSLTSEDTAVYYCAKSFPDNYYSYDDAFAYWGQGTLVTVSA VL: DIQMTQSPASQSASLGESVTFSCLASQTIGTWLGWYQQKPGKSPQLLIYRATSLADGVPSRFSGSGSGTNFSFKISSLQAEDLASYYCQQLYSGPYTFGGGTKLEIR
no binding (tested: 100 nM)	no binding (tested: 100 nM)	–	–	–	–	–	–	–	–	–	–	chimeric antibody of 76E10 (antibody, V domains shown, No own label printed; also called chimeric 76E10) VH: QVQLKESGPVLVAPSQSLSITCTVSGFSLTNYGVHWVRQPPGKGLEWLGVIWPVGSTNYNSALMSRLSIHKDNSKSQVFLRMNSLQTDDTAIYYCAKMDWDDFFDYWGQGTTLTVSS VL: DIVMTQSQKFMSATVGGRVNITCKASQNVGRAVAWYQQKPGQSPKLLTHSASNRYTGVPDRFTGSGSGTDFTLTITNMQSEDLADYFCQQYSSYPLTFGAGTKLDLK
no binding (tested: 100 nM)	no binding (tested: 100 nM)	0.4 nM	0.3 nM	0.2 nM	1.9 nM	2 nM	1.3 nM	–	–	–	–	chimeric antibody C33D10 (antibody, V domains shown, Mouse variable domains of 33D10 on human constant domains (hu IgG1KO/kappa); also called chimeric 33D10) VH: QVQLQQSGTELLKPGASVKLSCKASGNTVTSYWMHWVKQRPGQGLEWIGEILPSTGRTNYNENFKGKAMLTVDKSSSTAYMQLSSLASEDSAVYYCTIVYFGNPWFAYWGQGTLVTVSA VL: QIVLTQSPAIMSASLGERVTMTCTASSSVSSSYLHWYQKKPGSSPKLWVYSTSNLASGVPVRFSGSGSGTSYSLTISSMEAEDAATYYCHQHHRSPVTFGSGTKLEMK
no binding (tested: 100 nM)	no binding (tested: 100 nM)	0.4 nM	0.1 nM	0.1 nM	1.3 nM	0.9 nM	0.4 nM	1.2 nM	11.1 nM	0.3 nM	1.8 nM	chimeric antibody C81B4 (antibody, V domains shown, Mouse variable domains of 81B4 on human constant domains (hu IgG1KO/kappa); also called chimeric 81B4) VH: QVQLQQPGADFVRPGASMRLSCKASGYSFTSSWIHWVKQRPGQGLEWIGEINPGNVRTNYNENFRNKATLTVDKSSTTAYMQLRSLTSADSAVYYCTVVFYGEPYFPYWGQGTLVTVSA VL: QIVLTQSPAIMSASLGERVTMTCTASSSVSSSYFHWYQQKPGSSPKLWIYRTSNLASGVPGRFSGSGSGTSYSLTISSMEAEDAATYYCHQFHRSPLTFGAGTKLELK
